One molecule from patent US20240035010, “COMPOSITIONS COMPRISING A VARIANT POLYPEPTIDE AND USES THEREOF” (Arbor Biotechnologies, Inc., published 2024) can be followed below.

In this series the target is T1, variant nuclease D590G combination (P14R, D32R, I61R, E311R, D590G).
T1 chain: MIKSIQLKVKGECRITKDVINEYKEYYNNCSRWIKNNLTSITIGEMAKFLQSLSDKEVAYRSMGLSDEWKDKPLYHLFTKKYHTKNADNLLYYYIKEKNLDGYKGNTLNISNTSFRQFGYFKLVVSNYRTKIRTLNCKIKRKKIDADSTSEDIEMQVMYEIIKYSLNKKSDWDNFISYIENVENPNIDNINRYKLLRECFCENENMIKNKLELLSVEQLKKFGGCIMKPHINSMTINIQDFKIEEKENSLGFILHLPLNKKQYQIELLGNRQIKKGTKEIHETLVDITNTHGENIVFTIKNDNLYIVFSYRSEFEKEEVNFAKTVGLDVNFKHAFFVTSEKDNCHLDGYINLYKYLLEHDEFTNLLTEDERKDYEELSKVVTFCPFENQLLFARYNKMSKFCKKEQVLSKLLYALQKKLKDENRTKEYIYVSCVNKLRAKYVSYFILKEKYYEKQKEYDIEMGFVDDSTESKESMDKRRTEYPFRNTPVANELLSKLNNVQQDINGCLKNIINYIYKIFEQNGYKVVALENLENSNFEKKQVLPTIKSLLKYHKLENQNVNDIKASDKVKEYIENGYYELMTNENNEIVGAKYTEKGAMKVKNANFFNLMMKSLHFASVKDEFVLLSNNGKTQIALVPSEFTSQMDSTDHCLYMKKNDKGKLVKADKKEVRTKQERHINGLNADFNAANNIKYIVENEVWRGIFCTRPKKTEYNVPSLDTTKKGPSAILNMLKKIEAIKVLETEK
The experiment in a line: cell_activity; PAM 5'-TTTG-3'. Particulars: tags: pcDNA3.1 expression. In outline: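 HEK293T cells were lipofected with nuclease plasmid (pcDNA3.1 backbone) plus RNA guide plasmid, with guide omitted in negative controls. After ~72 h cells were lysed in QuickExtract and % indels were derived from NGS reads, averaged over two bioreplicates and two technical replicates.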

B1: AAVS1 crRNA ; AAVS1 target (ssRNA ; dsDNA)
RNA: CUUGUUGUAUAUGUCCUUUUAUAGGUAUUAAACAACUGAGAAUGGUGCGUCCUAGG
DNA 1: TGAGAATGGTGCGTCCTAGG
DNA 2: CCTAGGACGCACCATTCTCA
In the case of B1, the indel activity is 5.96 fold of WT.
